To fix the notation:
T1: PUF4 RNA-binding domain (Saccharomyces cerevisiae, UniProt P25339 537-888)
T1 sequence: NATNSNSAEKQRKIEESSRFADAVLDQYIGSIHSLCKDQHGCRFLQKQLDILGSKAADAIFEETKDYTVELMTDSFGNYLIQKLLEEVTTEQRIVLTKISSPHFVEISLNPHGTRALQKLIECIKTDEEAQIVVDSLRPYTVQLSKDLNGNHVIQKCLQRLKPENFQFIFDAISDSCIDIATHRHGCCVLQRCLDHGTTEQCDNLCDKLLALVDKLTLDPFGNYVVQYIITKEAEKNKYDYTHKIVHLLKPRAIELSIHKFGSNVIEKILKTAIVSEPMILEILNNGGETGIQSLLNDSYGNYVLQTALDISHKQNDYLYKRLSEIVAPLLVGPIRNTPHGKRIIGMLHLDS

B1: Ic_S1_P5E.1_K5.1_C5.1_H5.1_A5.1_[A7T]_F5.1_[T8G]_[T9C]_[A10C]_T5.1 (ssRNA)
RNA: UCUCUUUGUAUUUGCCUCUCUU
B2: Ic_S1_P5E.1_K5.1_C5.1_H5.1_A5.1_[T5A]_[T6G]_[A7T]_F5.1_[T8A]_[T9A]_[A10C]_T5.1 (ssRNA)
RNA: UCUCUUUGUAAGUAACUCUCUU
B3: Ic_S1_P5E.1_K5.1_C5.1_H5.1_A5.1_[T5C]_[T6G]_[A7C]_F5.1_[T8C]_[T9C]_[A10C]_T5.1 (ssRNA)
RNA: UCUCUUUGUACGCCCCUCUCUU
B4: Ib_S1_P3E.1_K3.1_C3.1_H3.1_[T1A]_[A4G]_A3.1_F3.1_T3.1 (ssRNA)
RNA: UCUCUUAGUGUAUAUCUCUU
B5: Ic_S1_P5E.1_K5.1_C5.1_H5.1_A5.1_[T5G]_[T6C]_F5.1_[T9C]_T5.1 (ssRNA)
RNA: UCUCUUUGUAGCAUCAUCUCUU
B6: Ic_S1_P5E.1_K5.1_C5.1_H5.1_A5.1_[T5A]_[T6C]_[A7G]_F5.1_[T8A]_[T9C]_[A10T]_T5.1 (ssRNA)
RNA: UCUCUUUGUAACGACUUCUCUU
B7: Ic_S1_P5E.1_K5.1_C5.1_H5.1_A5.1_[T5C]_[T6C]_F5.1_[A10T]_T5.1 (ssRNA)
RNA: UCUCUUUGUACCAUUUUCUCUU
B8: Ic_S1_P5E.1_K5.1_C5.1_H5.1_A5.1_[T5A]_[T6A]_[A7T]_F5.1_[A10T]_T5.1 (ssRNA)
RNA: UCUCUUUGUAAAUUUUUCUCUU
B9: Ic_S1_P5E.1_K5.1_C5.1_H5.1_A5.1_[T5A]_[T6C]_[A7C]_F5.1_[T8C]_[T9A]_T5.1 (ssRNA)
RNA: UCUCUUUGUAACCCAAUCUCUU
B10: Ic_S1_P5E.1_K5.1_C5.1_H5.1_A5.1_[A7C]_F5.1_[T8G]_[T9G]_[A10T]_T5.1 (ssRNA)
RNA: UCUCUUUGUAUUCGGUUCUCUU
B11: Ic_S1_P5E.1_K5.1_C5.1_H5.1_A5.1_[T6A]_[A7G]_F5.1_[T8C]_[T9C]_[A10T]_T5.1 (ssRNA)
RNA: UCUCUUUGUAUAGCCUUCUCUU
B12: Ic_S1_P5E.1_K5.1_C5.1_H5.1_A5.1_[T5C]_[T6G]_[A7C]_F5.1_[T8G]_[A10C]_T5.1 (ssRNA)
RNA: UCUCUUUGUACGCGUCUCUCUU
B13: Ic_S1_P5E.1_K5.1_C5.1_H5.1_A5.1_[T5A]_[T6A]_[A7T]_F5.1_[T8A]_[T9A]_[A10C]_T5.1 (ssRNA)
RNA: UCUCUUUGUAAAUAACUCUCUU
B14: Ic_S1_P5E.1_K5.1_C5.1_H5.1_A5.1_[T5C]_[T6C]_[A7T]_F5.1_[T9G]_[A10G]_T5.1 (ssRNA)
RNA: UCUCUUUGUACCUUGGUCUCUU
B15: Ic_S1_P5E.1_K5.1_C5.1_H5.1_A5.1_[T5G]_[T6C]_F5.1_[T9A]_[A10G]_T5.1 (ssRNA)
RNA: UCUCUUUGUAGCAUAGUCUCUU
B16: Ic_S1_P5E.1_K5.1_C5.1_H5.1_A5.1_[T5C]_[T6A]_[A7C]_F5.1_[T9C]_[A10C]_T5.1 (ssRNA)
RNA: UCUCUUUGUACACUCCUCUCUU
B17: Ic_S1_P5E.1_K5.1_C5.1_H5.1_A5.1_[T6G]_[A7G]_F5.1_[A10T]_T5.1 (ssRNA)
RNA: UCUCUUUGUAUGGUUUUCUCUU
B18: Ic_S1_P5E.1_K5.1_C5.1_H5.1_A5.1_[T6G]_[A7T]_F5.1_[T8A]_[T9C]_[A10T]_T5.1 (ssRNA)
RNA: UCUCUUUGUAUGUACUUCUCUU
B19: Ic_S1_P5E.1_K5.1_C5.1_H5.1_A5.1_[T6G]_[A7T]_F5.1_[T8G]_[T9G]_[A10T]_T5.1 (ssRNA)
RNA: UCUCUUUGUAUGUGGUUCUCUU
B20: Ic_S1_P5E.1_K5.1_C5.1_H5.1_A5.1_[T5A]_[T6C]_[A7T]_F5.1_[T8C]_[T9G]_[A10G]_T5.1 (ssRNA)
RNA: UCUCUUUGUAACUCGGUCUCUU
B21: Ic_S1_P5E.1_K5.1_C5.1_H5.1_A5.1_[T5A]_[T6A]_F5.1_[A10G]_T5.1 (ssRNA)
RNA: UCUCUUUGUAAAAUUGUCUCUU
B22: Ic_S1_P5E.1_K5.1_C5.1_H5.1_A5.1_[T6A]_[A7C]_F5.1_[T9A]_[A10G]_T5.1 (ssRNA)
RNA: UCUCUUUGUAUACUAGUCUCUU
B23: Ic_S1_P5E.1_K5.1_C5.1_H5.1_A5.1_[T6A]_[A7C]_F5.1_[T8C]_[T9C]_[A10T]_T5.1 (ssRNA)
RNA: UCUCUUUGUAUACCCUUCUCUU
B24: Ic_S1_P5E.1_K5.1_C5.1_H5.1_A5.1_[T5A]_[T6A]_[A7C]_F5.1_[A10T]_T5.1 (ssRNA)
RNA: UCUCUUUGUAAACUUUUCUCUU
B25: Ic_S1_P5E.1_K5.1_C5.1_H5.1_A5.1_[T5C]_[T6A]_F5.1_[T9A]_T5.1 (ssRNA)
RNA: UCUCUUUGUACAAUAAUCUCUU
B26: Ib_S1_P3E.1_K3.1_C3.1_H3.1_[G2C]_[T3G]_A3.1_F3.1_T3.1 (ssRNA)
RNA: UCUCUUUCGAUAUAUCUCUU
B27: Ic_S1_P5E.1_K5.1_C5.1_H5.1_A5.1_[T5G]_[A7C]_F5.1_[T9A]_T5.1 (ssRNA)
RNA: UCUCUUUGUAGUCUAAUCUCUU
B28: Ic_S1_P5E.1_K5.1_C5.1_H5.1_A5.1_[T5C]_[T6C]_[A7C]_F5.1_[T8G]_[T9A]_[A10T]_T5.1 (ssRNA)
RNA: UCUCUUUGUACCCGAUUCUCUU
B29: Ic_S1_P5E.1_K5.1_C5.1_H5.1_A5.1_[T5A]_[T6A]_[A7C]_F5.1_[T9G]_[A10T]_T5.1 (ssRNA)
RNA: UCUCUUUGUAAACUGUUCUCUU
B30: Ic_S1_P5E.1_K5.1_C5.1_H5.1_A5.1_[T5C]_[T6C]_F5.1_[T8A]_[T9A]_[A10C]_T5.1 (ssRNA)
RNA: UCUCUUUGUACCAAACUCUCUU
B31: Ic_S1_P5E.1_K5.1_C5.1_H5.1_A5.1_[T5C]_[T6C]_[A7G]_F5.1_[T8G]_[T9C]_[A10C]_T5.1 (ssRNA)
RNA: UCUCUUUGUACCGGCCUCUCUU
B32: Ic_S1_P5E.1_K5.1_C5.1_H5.1_A5.1_[T6G]_[A7C]_F5.1_[T8A]_T5.1 (ssRNA)
RNA: UCUCUUUGUAUGCAUAUCUCUU
B33: Ic_S1_P5E.1_K5.1_C5.1_H5.1_A5.1_[T5A]_[T6A]_[A7C]_F5.1_[T9A]_[A10T]_T5.1 (ssRNA)
RNA: UCUCUUUGUAAACUAUUCUCUU
B34: Ic_S1_P5E.1_K5.1_C5.1_H5.1_A5.1_[T5A]_[T6A]_[A7T]_F5.1_[T9G]_[A10T]_T5.1 (ssRNA)
RNA: UCUCUUUGUAAAUUGUUCUCUU
B35: Ic_S1_P5E.1_K5.1_C5.1_H5.1_A5.1_[T5C]_[A7T]_F5.1_[T8C]_[T9G]_[A10T]_T5.1 (ssRNA)
RNA: UCUCUUUGUACUUCGUUCUCUU
B36: Ic_S1_P5E.1_K5.1_C5.1_H5.1_A5.1_[T5G]_[T6C]_F5.1_[T8C]_T5.1 (ssRNA)
RNA: UCUCUUUGUAGCACUAUCUCUU
B37: Ic_S1_P5E.1_K5.1_C5.1_H5.1_A5.1_[A7T]_F5.1_[T8G]_[T9C]_[A10T]_T5.1 (ssRNA)
RNA: UCUCUUUGUAUUUGCUUCUCUU
B38: Ib_S1_P3E.1_K3.1_C3.1_H3.1_[G2C]_[T3C]_A3.1_F3.1_T3.1 (ssRNA)
RNA: UCUCUUUCCAUAUAUCUCUU
B39: Ic_S1_P5E.1_K5.1_C5.1_H5.1_A5.1_[T5C]_[T6C]_F5.1_[T8G]_[A10C]_T5.1 (ssRNA)
RNA: UCUCUUUGUACCAGUCUCUCUU
B40: Ic_S1_P5E.1_K5.1_C5.1_H5.1_A5.1_[T5A]_F5.1_[T8A]_[A10T]_T5.1 (ssRNA)
RNA: UCUCUUUGUAAUAAUUUCUCUU
B41: Ib_S1_P3E.1_K3.1_C3.1_H3.1_[T1C]_[A4G]_A3.1_F3.1_T3.1 (ssRNA)
RNA: UCUCUUCGUGUAUAUCUCUU
B42: Ic_S1_P5E.1_K5.1_C5.1_H5.1_A5.1_[T6G]_F5.1_[T8C]_[T9C]_T5.1 (ssRNA)
RNA: UCUCUUUGUAUGACCAUCUCUU
B43: Ic_S1_P5E.1_K5.1_C5.1_H5.1_A5.1_[T5A]_[T6A]_F5.1_[T8C]_[T9G]_[A10G]_T5.1 (ssRNA)
RNA: UCUCUUUGUAAAACGGUCUCUU
B44: Ic_S1_P5E.1_K5.1_C5.1_H5.1_A5.1_[T5A]_[A7G]_F5.1_[T8G]_T5.1 (ssRNA)
RNA: UCUCUUUGUAAUGGUAUCUCUU
B45: Ic_S1_P5E.1_K5.1_C5.1_H5.1_A5.1_[T5A]_[T6C]_[A7C]_F5.1_[T9C]_[A10G]_T5.1 (ssRNA)
RNA: UCUCUUUGUAACCUCGUCUCUU
B46: Ic_S1_P5E.1_K5.1_C5.1_H5.1_A5.1_[T5A]_[A7C]_F5.1_[T9C]_[A10T]_T5.1 (ssRNA)
RNA: UCUCUUUGUAAUCUCUUCUCUU

The data set addresses T1, PUF4 RNA-binding domain. As to the kind of experiment: Mg; RNA-MaP; 20 mM Na-HEPES pH 7.4, 30 mM KOAc, 0.75 mM MgCl2, 0.1% Tween-20, 5% glycerol, 0.1 mg/mL BSA, 2 mM DTT; 25 C; 0.0125-409.6 nM protein. The following applies: tags: N-His6-TEV cleaved; C-SNAP kept, Cy3B-labelled; label: tethered on chip by stalled RNA polymerase.
With B1, binding was characterised by a dissociation constant (Kd) of 568 nM.

Regarding B2, the dissociation constant (Kd) is above 2300 nM. Then B3, with 662 nM; and B4, with 51.9 nM. Then B5, with 287 nM. Then B6, with above 2300 nM; and B7, with 7.08 nM; and B8, with 22.4 nM. Consider B9, for which the Kd stood at 1740 nM. In the case of B10 it was 578 nM. As to B11, the Kd was 114 nM. With B12, binding was put at a Kd of 1980 nM. Then B13, with 31.1 nM; and B14, with 103 nM. For the molecule B15, the Kd is 9.57 nM. B16 returned an equilibrium dissociation constant (Kd) of 7.65 nM. Then B17, with 159 nM; and B18, with 64.7 nM; and B19, with 421 nM.

Consider B20, for which the dissociation constant Kd is above 2300 nM. Then B21, with 22.4 nM.

Consider B22, for which binding was put at a Kd of 0.331 nM. For B23, the affinity, expressed as Kd, was 103 nM. On to B24, for which the Kd stood at 37.5 nM.

In turn, B25 yielded an equilibrium dissociation constant (Kd) of 1.94 nM. In the case of B26 it was above 2300 nM; in that of B27, 36 nM; in that of B28, 1050 nM. In turn, B29 gave a Kd of 12.6 nM. B30 gave a Kd of 68.1 nM.

B31 yielded a Kd above 2300 nM. The molecule B32 returned a Kd of 36 nM. B33 came in with a Kd of 2.36 nM. B34 displayed a Kd of 11.5 nM.

B35 returned a Kd of 352 nM. In the case of B36 it was 45.5 nM. On to B37, for which binding was put at a Kd of 324 nM. Then B38, with above 2300 nM; and B39, with 363 nM; and B40, with 324 nM. In the case of B41 it was 26.7 nM; in that of B42, 1110 nM.

Turning to B43, the Kd is 625 nM. In turn, B44 gave a Kd of 45.1 nM.

B45: the Kd came to 123 nM. In the case of B46 it was 440 nM.

The record behind these values is publication PMC9352680, “A comprehensive thermodynamic model for RNA binding by the Saccharomyces cerevisiae Pumilio protein PUF4”.
